Values of other authors in publication PMC10044870.

Molecular target: cleaved high molecular weight kininogen (HKa) (Homo sapiens) (UniProt P01042)
Sequence (P01042 19-380, chain 1 of 2): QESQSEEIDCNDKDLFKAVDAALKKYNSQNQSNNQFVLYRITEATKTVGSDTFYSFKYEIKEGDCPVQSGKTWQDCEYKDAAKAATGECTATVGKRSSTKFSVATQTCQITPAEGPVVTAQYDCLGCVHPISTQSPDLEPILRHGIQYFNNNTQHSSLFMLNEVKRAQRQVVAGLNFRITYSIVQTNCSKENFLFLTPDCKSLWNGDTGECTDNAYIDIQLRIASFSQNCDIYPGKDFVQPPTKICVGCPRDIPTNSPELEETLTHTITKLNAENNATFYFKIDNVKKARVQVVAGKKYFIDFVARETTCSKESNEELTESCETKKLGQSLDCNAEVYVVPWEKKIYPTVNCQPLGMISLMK
Sequence (P01042 390-644, chain 2 of 2): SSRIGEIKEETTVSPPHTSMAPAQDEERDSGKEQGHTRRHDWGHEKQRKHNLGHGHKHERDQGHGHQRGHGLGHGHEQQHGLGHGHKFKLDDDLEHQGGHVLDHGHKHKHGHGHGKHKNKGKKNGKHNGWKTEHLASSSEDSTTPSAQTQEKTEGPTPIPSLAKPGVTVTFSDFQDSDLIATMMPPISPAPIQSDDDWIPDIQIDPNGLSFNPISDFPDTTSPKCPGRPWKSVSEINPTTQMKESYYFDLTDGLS

Chain of ferritin (P02794 2-183): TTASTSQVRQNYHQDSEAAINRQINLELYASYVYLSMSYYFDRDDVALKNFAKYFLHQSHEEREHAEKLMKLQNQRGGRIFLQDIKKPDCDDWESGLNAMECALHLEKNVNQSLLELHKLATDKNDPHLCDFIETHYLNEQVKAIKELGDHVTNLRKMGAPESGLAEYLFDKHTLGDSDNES
Chain of ferritin (P02792 2-175, further chain): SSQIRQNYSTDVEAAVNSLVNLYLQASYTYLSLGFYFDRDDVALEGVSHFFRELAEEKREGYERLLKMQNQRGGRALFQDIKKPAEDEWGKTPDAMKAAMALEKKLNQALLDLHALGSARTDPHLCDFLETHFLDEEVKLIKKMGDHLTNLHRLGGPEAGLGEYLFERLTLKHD

Kd: 13 nM
Substance: ferritin (from UniProt P02794)
